This is an account of results in patent publication US12180280 (dated 2024).

Like-named read-outs stand apart in the source and are kept apart here.

The Kd is a measure of binding affinity in units of concentration.

Holding throughout (test): SPR
In general terms: In SPR one partner is held on a chip, and binding of the other changes the refractive index at the surface.

The target in test [1] is T1, human CD3 epsilon (human, UniProt P07766).
T1 chain: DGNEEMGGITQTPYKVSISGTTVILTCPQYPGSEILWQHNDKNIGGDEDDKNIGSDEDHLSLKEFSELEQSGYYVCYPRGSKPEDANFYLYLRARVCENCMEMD

Test [2] concerns the target T2, monkey CD3 epsilon (cynomolgus monkey, UniProt Q95LI5).
T2 chain: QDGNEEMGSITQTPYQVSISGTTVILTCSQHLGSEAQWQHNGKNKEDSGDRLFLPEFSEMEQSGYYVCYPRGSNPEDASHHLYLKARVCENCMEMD

The target in test [3] is T1, human CD3 epsilon.
The target in test [4] is T2, monkey CD3 epsilon.
Test [5] deals with T1, human CD3 epsilon.

B1: CD20-TCB (CD3 arm) (antibody)
chain 1: not shown
chain 2: QVQLVQSGAEVKKPGSSVKVSCKASGYAFSYSWINWVRQAPGQGLEWMGRIFPGDGDTDYNGKFKGRVTITADKSTSTAYMELSSLRSEDTAVYYCARNVFDGYWLVYWGQGTLVTVSSASTKGPSVFPLAPSSKSTSGGTAALGCLVEDYFPEPVTVSWNSGALTSGVHTFPAVLQSSGLYSLSSVVTVPSSSLGTQTYICNVNHKPSNTKVDEKVEPKSCDKTHTCPPCPAPEAAGGPSVFLFPPKPKDTLMISRTPEVTCVVVDVSHEDPEVKFNWYVDGVEVHNAKTKPREEQYNSTYRVVSVLTVLHQDWLNGKEYKCKVSNKALGAPIEKTISKAKGQPREPQVCTLPPSRDELTKNQVSLSCAVKGFYPSDIAVEWESNGQPENNYKTTPPVLDSDGSFFLVSKLTVDKSRWQQGNVFSCSVMHEALHNHYTQKSLSLSP
chain 3: EVQLLESGGGLVQPGGSLRLSCAASGFTFSTYAMNWVRQAPGKGLEWVSRIRSKYNNYATYYADSVKGRFTISRDDSKNTLYLQMNSLRAEDTAVYYCVRHGNFGNSYVSWFAYWGQGTLVTVSSASVAAPSVFIFPPSDEQLKSGTASVVCLLNNFYPREAKVQWKVDNALQSGNSQESVTEQDSKDSTYSLSSTLTLSKADYEKHKVYACEVTHQGLSSPVTKSFNRGEC
chain 4: DIVMTQTPLSLPVTPGEPASISCRSSKSLLHSNGITYLYWYLQKPGQSPQLLIYQMSNLVSGVPDRFSGSGSGTDFTLKISRVEAEDVGVYYCAQNLELPYTFGGGTKVEIKRTVAAPSVFIFPPSDRKLKSGTASVVCLLNNFYPREAKVQWKVDNALQSGNSQESVTEQDSKDSTYSLSSTLTLSKADYEKHKVYACEVTHQGLSSPVTKSFNRGEC
Take B1: in the test with human CD3 epsilon [1], the Kd amounted to 5600 pM.

B2: 15H2L3 (antibody, V domains shown)
VH: EVQLLESGGGLVQPGGSLRLSCAASGFTFNTYAMNWVRQAPGKGLEWVARIRSKYNNYATYYAISVKDRFTISRDNSKNTLYLQMNSLRAEDTAVYYCVKHGNFGNSYLSYWAYWGQGTLVTVSS
VL: QAVVTQEPSLTVSPGGTVTLTCQSSTGAVTTNNYANWVQQKPGHAFRGLIGGTKQRAPGVPARFSGSLLGGKAALTLSGVQPEDEAEYYCVLWYSNLWVFGGGTKLTVL
For B2, the Kd came out at 777 pM with monkey CD3 epsilon [2] and 104 pM with human CD3 epsilon [3].

B3: 26H2L3 (antibody, V domains shown)
VH: EVQLLESGGGLVQPGGSLRLSCAASGFTFNTYAMNWVRQAPGKGLEWVARIRSKYNNYATYYADSVKDRFTISRDNSKNTLYLQMNSLRAEDTAVYYCVKHGNFGNSYISWWAYWGQGTLVTVSS
VL: QAVVTQEPSLTVSPGGTVTLTCKSSTGAVTTSNYANWVQQKPGHAFRGLIGGTNLHAPGVPARFSGSLLGGKAALTLSGVQPEDEAEYYCALWYSNLWVFGGGTKLTVL
Turning to B3, the Kd worked out at 2270 pM in the test with monkey CD3 epsilon [2] and 3950 pM in the test with human CD3 epsilon [3].

B4: 15H3L2 (antibody, V domains shown)
VH: EVQLLESGGGLVQPGGSLRLSCAASGFTFNTYAMNWVRQAPGKGLEWVARIRSKYNNYATYYAISVKDRFTISRDDSKNTLYLQMNSLRAEDTAMYYCVRHGNFGNSYLSYWAYWGQGTLVTVSS
VL: QTVVTQEPSLTVSPGGTVTLTCQSSTGAVTTNNYANWVQQKPGQAPRALIGGTKQRAPGTPARFSGSLLGGKAALTLSGVQPEDEAEYYCVLWYSNLWVFGGGTKLTVL
As to B4, the Kd was 591 pM with monkey CD3 epsilon [2] and 205 pM with human CD3 epsilon [3].

B5: MBS303-2 (CD3 arm) (antibody, V domains shown)
VH: EVQLLESGGGLVQPGGSLRLSCAASGFTFNTYAMNWVRQAPGKGLEWVARIRSKYNNYATYYAISVKDRFTISRDDSKNTLYLQMNSLRAEDTAMYYCVRHGNFGNSYLSYWAYWGQGTLVTVSS
VL: QAVVTQEPSLTVSPGGTVTLTCQSSTGAVTTNNYANWVQQKPGHAFRGLIGGTKQRAPGVPARFSGSLLGGKAALTLSGVQPEDEAEYYCVLWYSNLWVFGGGTKLTVL
In the test with human CD3 epsilon [1], B5 registered a Kd of 1790 pM.

B6: 26H3L3 (antibody, V domains shown)
VH: EVQLLESGGGLVQPGGSLRLSCAASGFTFNTYAMNWVRQAPGKGLEWVARIRSKYNNYATYYADSVKDRFTISRDDSKNTLYLQMNSLRAEDTAMYYCVRHGNFGNSYISWWAYWGQGTLVTVSS
VL: QAVVTQEPSLTVSPGGTVTLTCKSSTGAVTTSNYANWVQQKPGHAFRGLIGGTNLHAPGVPARFSGSLLGGKAALTLSGVQPEDEAEYYCALWYSNLWVFGGGTKLTVL
Consider B6, for which the Kd in the test with monkey CD3 epsilon [2] came out at 192 pM; with human CD3 epsilon [3], 864 pM.

B7: 15H2L2 (antibody, V domains shown)
VH: EVQLLESGGGLVQPGGSLRLSCAASGFTFNTYAMNWVRQAPGKGLEWVARIRSKYNNYATYYAISVKDRFTISRDNSKNTLYLQMNSLRAEDTAVYYCVKHGNFGNSYLSYWAYWGQGTLVTVSS
VL: QTVVTQEPSLTVSPGGTVTLTCQSSTGAVTTNNYANWVQQKPGQAPRALIGGTKQRAPGTPARFSGSLLGGKAALTLSGVQPEDEAEYYCVLWYSNLWVFGGGTKLTVL
Take B7: the figures for the Kd in the test with monkey CD3 epsilon [2] and with human CD3 epsilon [3] were 5840 pM and 516 pM, respectively.

B8: MBS303-1 (CD3 arm) (antibody, V domains shown)
VH: EVQLLESGGGLVQPGGSLRLSCAASGFTFNTYAMNWVRQAPGKGLEWVARIRSKYNNYATYYAISVKDRFTISRDNSKNTLYLQMNSLRAEDTAVYYCVKHGNFGNSYLSYWAYWGQGTLVTVSS
VL: QAVVTQEPSLTVSPGGTVTLTCQSSTGAVTTNNYANWVQQKPGHAFRGLIGGTKQRAPGVPARFSGSLLGGKAALTLSGVQPEDEAEYYCVLWYSNLWVFGGGTKLTVL
The molecule B8 came in with a Kd with human CD3 epsilon [1] of 1990 pM.

B9: 15H3L3 (antibody, V domains shown)
VH: EVQLLESGGGLVQPGGSLRLSCAASGFTFNTYAMNWVRQAPGKGLEWVARIRSKYNNYATYYAISVKDRFTISRDDSKNTLYLQMNSLRAEDTAMYYCVRHGNFGNSYLSYWAYWGQGTLVTVSS
VL: QAVVTQEPSLTVSPGGTVTLTCQSSTGAVTTNNYANWVQQKPGHAFRGLIGGTKQRAPGVPARFSGSLLGGKAALTLSGVQPEDEAEYYCVLWYSNLWVFGGGTKLTVL
B9: the Kd with monkey CD3 epsilon [2] worked out at 616 pM; with human CD3 epsilon [3], 96.7 pM.

B10: 19-37 (antibody, V domains shown)
VH: EVKLLESGGGLVQPKGSLKLSCAASGFTFNTYAMNWVRQAPGKGLEWVARIRSKYNNYATYYAISVKDRFTISRDDSQSILYLQMNNLKTEDTAMYYCVRHGNFGNSYISYWAYWGQGTLVTVSA
VL: QAVVTQESALTTSPGETVTLTCRSSTGAVTTNNYANWVQEKPDHLFTGLIGGTRLSAPGVPARFSGSLIGDKAALTITGAQTEDEAIYFCVLWYSNLWVFGGGTKLTVL
For the molecule B10, the Kd with monkey CD3 epsilon [4] came out at 3.79 pM; with human CD3 epsilon [5] it was 6.28 pM.

B11: 19-15 (antibody, V domains shown)
VH: EVKLLESGGGLVQPKGSLKLSCAASGFTFNTYAMNWVRQAPGKGLEWVARIRSKYNNYATYYAISVKDRFTISRDDSQSILYLQMNNLKTEDTAMYYCVRHGNFGNSYLSYWAYWGQGTLVTVSA
VL: QAVVTQESALTTSPGETVTLTCQSSTGAVTTNNYANWVQEKPDHLFTGLIGGTKQRAPGVPARFSGSLIGDKAALTITGAQTEDEAIYFCVLWYSNLWVFGGGTKLTVL
In the case of B11, the results for the Kd with monkey CD3 epsilon [4] and with human CD3 epsilon [5] were 232 pM and 143 pM, respectively.

B12: CD3-19 (antibody, V domains shown)
VH: EVKLLESGGGLVQPKGSLKLSCAASGFTFNSYAMNWVRQAPGKGLEWVARIRSKYNNYATYYADSVKDRFTISRDDSQSILYLQMNNLKTEDTAMYYCVRHGNFGNSYLSYWAYWGQGTLVTVSA
VL: QAVVTQESALTTSPGETVTLTCDSSTGAVTTSNYANWVQEKPDHLFTGLIGGTQRSAPGVPARFSGSLIGDKAALTITGAQTEDEAIYFCVLWYSNLWVFGGGTKLTVL
Regarding B12, the Kd was 347 pM in the test with monkey CD3 epsilon [4] and 222 pM with human CD3 epsilon [5].

B13: 19-26 (antibody, V domains shown)
VH: EVKLLESGGGLVQPKGSLKLSCAASGFTFNTYAMNWVRQAPGKGLEWVARIRSKYNNYATYYADSVKDRFTISRDDSQSILYLQMNNLKTEDTAMYYCVRHGNFGNSYISWWAYWGQGTLVTVSA
VL: QAVVTQESALTTSPGETVTLTCKSSTGAVTTSNYANWVQEKPDHLFTGLIGGTNLHAPGVPARFSGSLIGDKAALTITGAQTEDEAIYFCALWYSNLWVFGGGTKLTVL
With B13, the Kd in the test with monkey CD3 epsilon [4] was determined as 237 pM; in the test with human CD3 epsilon [5], 184 pM.
